Experiment in all cases: cell_activity
In data set [1] the target is T1, ERα wild type (in cell) (Homo sapiens) (UniProt P03372).
T1 sequence: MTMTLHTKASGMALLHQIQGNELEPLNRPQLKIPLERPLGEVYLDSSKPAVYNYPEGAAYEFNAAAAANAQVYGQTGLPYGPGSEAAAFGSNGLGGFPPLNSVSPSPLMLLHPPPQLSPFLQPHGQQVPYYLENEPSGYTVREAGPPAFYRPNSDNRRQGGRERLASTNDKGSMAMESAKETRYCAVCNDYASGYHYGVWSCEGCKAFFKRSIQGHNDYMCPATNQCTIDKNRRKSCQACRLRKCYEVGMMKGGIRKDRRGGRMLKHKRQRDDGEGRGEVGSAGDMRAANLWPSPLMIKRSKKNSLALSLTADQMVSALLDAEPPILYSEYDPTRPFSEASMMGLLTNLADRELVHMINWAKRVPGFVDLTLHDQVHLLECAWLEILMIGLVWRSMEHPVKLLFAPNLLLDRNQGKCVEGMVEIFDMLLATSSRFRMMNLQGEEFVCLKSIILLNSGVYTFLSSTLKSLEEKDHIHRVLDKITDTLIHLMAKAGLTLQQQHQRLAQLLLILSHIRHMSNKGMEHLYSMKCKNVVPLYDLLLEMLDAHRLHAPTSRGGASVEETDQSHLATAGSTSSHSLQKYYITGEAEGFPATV
Particulars: HepG2, OHT.

For data set [2], the target named is T2, ER3M (in cell) E203W,Q214A,H216G (Homo sapiens) (UniProt P03372).
T2 sequence: T1 sequence with E203W, Q214A, H216G
The conditions noted are these: HepG2, 10 nM OHT.

The target in data set [3] is T3, ER4.3 (in cell) E203W,Q214V,G215R,H216P,N217T (Homo sapiens) (UniProt P03372).
T3 sequence: T1 sequence with E203W, Q214V, G215R, H216P, N217T
The conditions noted are these: HepG2, 10 nM OHT.

Where a chain is given by its changes, count along the chain named.

“GCTAGCGGGCCACTGTGGCCCTGACAACTAGTAAGTCGGGCCACTGTGGCCCGACGTACTATCTCGAGGGGCCACTGTGGCCCTAGAGCTGCAGGTATCGGGCCACTGTGGCCCTAGTTCATTAAAGCTTGGGCCACTGTGGCCCATCAAGATATCGAGATGGGCCACTGTGGCCCATCGACAGGAATTCACGGGCCACTGTGGCCCATCAAGATATCGAGATGGGCCACTGTGGCCCATCGACTCTAGA (double strand) [ATL8/PAL]”: the figures for the activity (fold induction) in data set [1], in data set [2] and in data set [3] were 52, 117 and 172, respectively.

(Values after US20030199022.)
